The values below come from patent US20020146804.

T1: mouse procaspase-14
T1 sequence: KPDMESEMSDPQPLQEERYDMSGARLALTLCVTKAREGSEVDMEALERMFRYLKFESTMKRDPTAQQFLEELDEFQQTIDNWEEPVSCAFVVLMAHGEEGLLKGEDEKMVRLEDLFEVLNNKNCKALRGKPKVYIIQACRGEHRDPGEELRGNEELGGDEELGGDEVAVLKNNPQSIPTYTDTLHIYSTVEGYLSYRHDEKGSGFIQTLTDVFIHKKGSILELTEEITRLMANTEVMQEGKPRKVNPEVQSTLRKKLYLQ

T2: mouse procaspase-14
T2 chain: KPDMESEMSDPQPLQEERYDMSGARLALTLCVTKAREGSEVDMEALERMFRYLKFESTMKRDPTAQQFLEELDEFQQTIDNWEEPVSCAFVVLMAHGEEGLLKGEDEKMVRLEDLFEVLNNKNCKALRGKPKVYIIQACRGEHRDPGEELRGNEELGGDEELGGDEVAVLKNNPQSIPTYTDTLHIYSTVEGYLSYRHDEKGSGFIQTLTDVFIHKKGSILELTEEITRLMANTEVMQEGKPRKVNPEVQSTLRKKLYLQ

B1: cytochrome c-activated caspase-7 in S-100 extract of human embryonic kidney 293 cells (protein)
chain: AKPDRSSFVPSLFSKKKKNVTMRSIKTTRDRVPTYQYNMNFEKLGKCIIINNKNFDKVTGMGVRNGTDKDAEALFKCFRSLGFDVIVYNDCSCAKMQDLLKKASEEDHTNAACFACILLSHGEENVIYGKDGVTPIKDLTAHFRGDRCKTLLEKPKLFFIQACRGTELDDGIQADSGPINDTDANPRYKIPVEADFLFAYSTVPGYYSWRSPGRGSWFVQALCSILEEHGKDLEIMQILTRVNDRVARHFESQSDDPHFHEKKQIPCVVSMLTKELYFSQ
B2: cytochrome c-activated caspase-9 in S-100 extract of human embryonic kidney 293 cells (protein)
chain: MDEADRRLLRRCRLRLVEELQVDQLWDALLSRELFRPHMIEDIQRAGSGSRRDQARQLIIDLETRGSQALPLFISCLEDTGQDMLASFLRTNRQAAKLSKPTLENLTPVVLRPEIRKPEVLRPETPRPVDIGSGGFGDVGALESLRGNADLAYILSMEPCGHCLIINNVNFCRESGLRTRTGSNIDCEKLRRRFSSLHFMVEVKGDLTAKKMVLALLELAQQDHGALDCCVVVILSHGCQASHLQFPGAVYGTDGCPVSVEKIVNIFNGTSCPSLGGKPKLFFIQACGGEQKDHGFEVASTSPEDESPGSNPEPDATPFQEGLRTFDQLDAISSLPTPSDIFVSYSTFPGFVSWRDPKSGSWYVETLDDIFEQWAHSEDLQSLLLRVANAVSVKGIYKQMPGCFNFLRKKLFFKTS
B3: cytochrome c-activated caspase-3 in S-100 extract of human embryonic kidney 293 cells (protein)
chain: SGISLDNSYKMDYPEMGLCIIINNKNFHKSTGMTSRSGTDVDAANLRETFRNLKYEVRNKNDLTREEIVELMRDVSKEDHSKRSSFVCVLLSHGEEGIIFGTNGPVDLKKITNFFRGDRCRSLTGKPKLFIIQACRGTELDCGIETDSGVDDDMACHKIPVEADFLYAYSTAPGYYSWRNSKDGSWFIQSLCAMLKQYADKLEFMHILTRVNRKVATEFESFSFDATFHAKKQIPCIVSMLTKELYFYH
B4: cytochrome c-activated caspase-6 in S-100 extract of human embryonic kidney 293 cells (protein)
chain: AFYKREMFDPAEKYKMDHRRRGIALIFNHERFFWHLTLPERRGTCADRDNLTRRFSDLGFEVKCFNDLKAEELLLKIHEVSTVSHADADCFVCVFLSHGEGNHIYAYDAKIEIQTLTGLFKGDKCHSLVGKPKIFIIQACRGNQHDVPVIPLDVVDNQTEKLDTNITEVDAASVYTLPAGADFLMCYSVAEGYYSHRETVNGSWYIQDLCEMLGKYGSSLEFTELLTLVNRKVSQRRVDFCKDPSAIGKKQVPCFASMLTKKLHFFPKSN

The test system of the first data set is T1, mouse procaspase-14.
Regarding purified recombinant caspase-8, the “processing (cleavage) of 35S labeled procaspase-14, SDS-PAGE and autoradiography” value (“processing (cleavage)” below) is “a significant amount of processing was observed when procaspase-14 was incubated with Granzyme B, caspase-10 and caspase-8, but not with other caspases”.

Take purified recombinant caspase-14: the “processing (cleavage)” value is on record as “Some processing was also observed with recombinant caspase-14 itself”.

With purified Granzyme B, the “processing (cleavage)” value is “a significant amount of processing was observed when procaspase-14 was incubated with Granzyme B, caspase-10 and caspase-8, but not with other caspases”.

Regarding purified recombinant caspase-10, the “processing (cleavage)” value was “a significant amount of processing was observed when procaspase-14 was incubated with Granzyme B, caspase-10 and caspase-8, but not with other caspases”.

For the next data set, the target named is T2, mouse procaspase-14.
Consider B1, for which the “cleavage/activation of 35S labeled procaspase-14 in S-100 extracts activated by cytochrome c and dATP, SDS-PAGE and autoradiography” value (shortened to “cleavage/activation”) was “no cleavage/activation of ^35S labeled procaspase-14 was observed in S-100 extracts activated by cytochrome c and dATP”.

For B2, the “cleavage/activation” value is “no cleavage/activation of ^35S labeled procaspase-14 was observed in S-100 extracts activated by cytochrome c and dATP”.

As to B3, the “cleavage/activation” value is “no cleavage/activation of ^35S labeled procaspase-14 was observed in S-100 extracts activated by cytochrome c and dATP”.

As for B4, the “cleavage/activation” value was “no cleavage/activation of ^35S labeled procaspase-14 was observed in S-100 extracts activated by cytochrome c and dATP”.
